Tests used:
Experiment in all cases: kinetics
Asp26 = Asp26 (UniProt position 26, FMSTNDKDIGV); settings: Continuous catalytic turnover
Cys139 = Cys139 (UniProt position 139, AFPRMCNLSYW); settings: Continuous catalytic turnover; cited from earlier work
Asp139 = Asp139 (UniProt position 139, AFPRMDNLSYW); settings: Continuous catalytic turnover; cited from earlier work
Asp132 = Asp132 (UniProt position 132, HIGAPDMAFPR); settings: Continuous catalytic turnover; cited from earlier work

Substance: Cytochrome c oxidase (aa3-type), subunit I H26D-D132A, subunit III-depleted (Rhodobacter sphaeroides; H26D;D132A)
- pKa (Asp26): 7.0 (6.9–7.1)

Substance: Cytochrome c oxidase (aa3-type), subunit I N139C-D132N, subunit III-depleted (Rhodobacter sphaeroides; N139C;D132N)
- pKa (Cys139): 8.0 (7.9–8.1)

Substance: Cytochrome c oxidase (aa3-type), subunit I N139D-D132N, subunit III-depleted (Rhodobacter sphaeroides; N139D;D132N)
- pKa (Asp139): 7.7 (7.5–7.9)

Substance: Cytochrome c oxidase (aa3-type), subunit I, in subunit III-depleted enzyme [WT III (−)] (Rhodobacter sphaeroides)
- pKa (Asp132): 7.0–7.3

Reference: publication PMC3294125
